Target: human CD20 (human) (UniProt P11836)
Assay: flow cytometry on a human B-cell lymphoma cell line, 30 min at 4 C, detection with FITC-labeled F(ab)'2 goat anti-human Fc-gamma-specific antibody, median fluorescence intensity

Chain of human CD20 (human) (P11836 whole entry): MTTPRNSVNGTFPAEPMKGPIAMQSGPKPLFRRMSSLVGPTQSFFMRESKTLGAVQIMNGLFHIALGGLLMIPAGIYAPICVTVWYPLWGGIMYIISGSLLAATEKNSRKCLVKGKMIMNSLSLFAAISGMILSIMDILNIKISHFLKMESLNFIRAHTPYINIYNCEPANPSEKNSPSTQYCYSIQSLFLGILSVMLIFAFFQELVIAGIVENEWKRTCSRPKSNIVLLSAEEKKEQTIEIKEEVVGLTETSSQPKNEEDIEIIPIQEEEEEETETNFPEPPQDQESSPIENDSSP

rituximab (antibody)
EC50 (read off the curve): 5 nM
